From PMC7338481 come the findings set out here.

This assay concerns the target Staphylococcal enterotoxin G, wild type (Staphylococcus aureus (staphylococcal)) (UniProt P0A0L8). The experiment in a line: SPR.

Take Soluble mouse TCR β chain Vβ8.2 protein: the dissociation constant (Kd) is 370 nM.

The Kd is the free concentration of one partner at which half of the binding sites on the other are occupied at equilibrium, for simple one-to-one binding. The low end stands for a tighter complex, the high end for a looser complex.
